Experimental data from US20060286611A1, “Antibodies against biotinylated histones and related proteins and assays related thereto” (Board of Regents of University of Nebraska, priority 2005, published 2006).
Non-standard residues stand in square brackets, D forms with d. No end group written: not given here. *: point of attachment. Me2 = dimethyl-lysine (dimethyl-epsilon-NH2-L-lysine); pS = N[C@@H](COP(=O)(O)O)C(=O)O; Orn = NCCC[C@H](N)C(=O)O; For = O=C*

What follows are compounds tested against T1, biotinidase (Homo sapiens, UniProt P43251) (assay: Enzymatic biotinylation of synthetic histone H3 peptides by biotinidase). Details: biotinidase and biocytin, 45 min.
T1 construct: 60 μL of human plasma; from tissue; host or cells: human plasma
T1 sequence (P43251 22-523): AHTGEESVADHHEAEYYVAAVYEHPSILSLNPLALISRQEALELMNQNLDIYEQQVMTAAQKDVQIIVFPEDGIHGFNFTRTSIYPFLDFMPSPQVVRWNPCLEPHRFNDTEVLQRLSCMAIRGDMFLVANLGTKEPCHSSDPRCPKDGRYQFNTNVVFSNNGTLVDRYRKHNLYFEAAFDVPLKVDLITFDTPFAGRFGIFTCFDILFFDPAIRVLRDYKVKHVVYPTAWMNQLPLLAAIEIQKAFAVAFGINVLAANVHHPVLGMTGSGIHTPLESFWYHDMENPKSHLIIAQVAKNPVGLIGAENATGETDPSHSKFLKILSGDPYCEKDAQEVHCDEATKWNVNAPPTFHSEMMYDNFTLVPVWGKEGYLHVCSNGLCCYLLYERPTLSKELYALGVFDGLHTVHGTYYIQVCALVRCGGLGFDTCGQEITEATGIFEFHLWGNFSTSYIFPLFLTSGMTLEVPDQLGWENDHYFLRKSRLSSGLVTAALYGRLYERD
Format: biochemical
For `NC(=O)NCCC[C@H](N)C(=O)O` [citrulline], the “enzymatic biotinylation by biotinidase, peptide-bound biotin probed with streptavidin-peroxidase” value was “relatively poor target for biotinylation”.
For “N16-23: histone H3 amino acids 16-23, including K18 and K23 (PRKQLATK; UniProt P68431 17-24, looked up, fragment) [Peptide N16-23]”, the “enzymatic biotinylation by biotinidase, peptide-bound biotin probed with streptavidin-peroxidase” value was “moderate target for biotinylation”.
“N18-25: histone H3 amino acids 18-25, including K18 and K23 (RKQLATKA; listed as Homo sapiens) [Peptide N18-25]” was tested, and the “enzymatic biotinylation by biotinidase, peptide-bound biotin probed with streptavidin-peroxidase” value was “better substrate for biotinylation”.
In the case of “TAAKSTGG [Peptide R8A6-13, histone H3 6-13, R8 substituted with alanine]”, the “enzymatic biotinylation by biotinidase, peptide-bound biotin probed with streptavidin-peroxidase” value is reported as “increased considerably”.
In the case of “TAOKSTGG (TA[Orn]KSTGG) [Peptide R8O6-13]”, the “enzymatic biotinylation by biotinidase, peptide-bound biotin probed with streptavidin-peroxidase” value is reported as “increased considerably”.
“TARASTGG [Peptide K9A6-13, histone H3 6-13, K9 substituted with alanine]” was tested, and the “enzymatic biotinylation by biotinidase, peptide-bound biotin probed with streptavidin-peroxidase” value was “no biotinylation was observed”.
For “TARKS(p)TGG (TARK[pS]TGG) [S10S(p)6-13, histone H3 6-13, phosphorylation of S10]”, the “enzymatic biotinylation by biotinidase, peptide-bound biotin probed with streptavidin-peroxidase” value was “poor target for biotinylation”.
In the case of “TARKSTGG [Peptide N6-13, native unmodified peptide, position 6-13 in histone H3]”, the “enzymatic biotinylation by biotinidase, peptide-bound biotin probed with streptavidin-peroxidase” value is reported as “moderate target for biotinylation”.

Each compound was assayed on histone H1 (assay: Proteolytic digestion of histone H1). Details: 20 mM.
Format: biochemical
Experimental: Here the inventors determined whether biotin release is mediated by proteolytic digestion of histones. One milligram of histone H1 was dissolved in 100 μl of 20 mM sodium acetate [pH 4.5]. 0.4 microliters of histone solution was mixed with 7.1 μl of nuclear extract containing 20 μg of protein; samples were incubated at 37° C. for 20 min. The following controls were tested: histones incubated without nuclear extract, and histones incubated with 2.5 microliter trypsin [with or without 20 mM of the trypsin inhibitor, phenylmethylsulphonylfluoride (PMSF)]. Reactions were terminated by heating the samples with equal volume of loading buffer at 72° C. for 10 min. Proteins were resolved using 4-12% Bis-Tris gels (Invitrogen, Carlsbad, Calif.) as described (Stanley et al., 2001) and were visualized using coomassie blue.
With `O=S(=O)(F)Cc1ccccc1` [PMSF, phenylmethylsulphonylfluoride] the “degradation of histone H1 by trypsin in the presence of the inhibitor” value was “prevented”.

Same assay, conditions: 37° C. for 20 min
In the case of trypsin, the “degradation of histone H1 by gel electrophoresis” value is reported as “degraded completely”.

The compounds below were run against T1, biotinidase (assay: Enzymatic biotinylation of synthetic histone H2A and H2A.X peptides by biotinidase). Details: human plasma as source of biotinidase, 75 μmol/L biocytin, pH 8.0, 37° C., up to 45 minutes.
Format: biochemical
Source text: In Examples described above, the inventors developed a procedure to identify amino acid residues in histones that are targets for biotinylation. […] Amino acid substitutions (e.g., lysine-to-alanine substitutions) in synthetic peptides are used to corroborate identification of biotinylation sites. In addition, amino acid modifications (e.g., acetylation of lysines) in peptides can be used to investigate the cross-talk between biotinylation of histones and other known modifications of histones.
Peptides from both the N- and C-terminal regions of histone H2A and H2A.X were included in the analysis of biotinylation sites. […] Reactions were quenched by adding an equal volume of Tricine gel loading buffer (Invitrogen, Carlsbad, Calif.).
`NC(=O)NCCC[C@H](N)C(=O)O` [citrulline] was tested, and the “enzymatic biotinylation by biotinidase, peptide-bound biotin probed with streptavidin peroxidase” value was “good targets for biotinylation”.

What follows are compounds tested against T1, biotinidase (assay: Enzymatic biotinylation of synthetic histone H4 peptides by biotinidase). Details: human plasma as source of biotinidase, biocytin, 37° C., 45 min.
Format: biochemical
Source text: It has been proposed that the following catalytic sequence leads to biotinylation in histones (Hymes et al., 1995; Hyme and Wolf, 1999). First, biocytin is cleaved by biotinidase to form an intermediate, cysteine-bound biotin. Second, the biotinyl moiety from the cysteine residue is transferred to the ε-amino group of lysines in histones. In the present study, synthetic peptides were biotinylated enzymatically using human plasma (as source of biotinidase) and biocytin (as source of biotin) as described previously (Hymes et al., 1995). Peptide concentrations in stock solutions were adjusted to 50 mg/L; 20 μL of peptide solution was mixed with 1.88 mL of 50 mmol/L Tris (pH 8.0), 40 μL of 0.75 mmol/L biocytin and 60 μL of human plasma. Samples were incubated […] at 37° C. for 45 min and stored at −70° C. unless stated otherwise.
After enzymatic biotinylation, peptides were electrophoresed using 16% tricine polyacrylamide gels according to the manufacturer's instructions (Invitrogen, Carlsbad, Calif.). Peptides were electroblotted onto polyvinylidene fluoride membranes (Millipore, Bedford, Mass.), which were blocked with 50 mL of 30 g/L BSA. Peptide-bound biotin was probed with streptavidin peroxidase (Stanley et al., 2001).
In the case of “2: histone H4 positions 6-15, alanine in position 8 (Ac-GGAGLGKGGA) [Peptide 2]”, the “enzymatic biotinylation by biotinidase, peptide-bound biotin probed with streptavidin peroxidase” value is reported as “decreased substantially”.
With “3: histone H4 positions 6-15, alanine in position 12 (Ac-GGKGLGAGGA) [Peptide 3]” the “enzymatic biotinylation by biotinidase, peptide-bound biotin probed with streptavidin peroxidase” value was “decreased substantially”.
For “4: histone H4 positions 6-15, alanine in positions 8 and 12 (Ac-GGAGLGAGGA) [Peptide 4]”, the “enzymatic biotinylation by biotinidase, peptide-bound biotin probed with streptavidin peroxidase” value was “did not undergo biotinylation”.
“5: histone H4 positions 6-15, Ac-K in position 8 (Ac-GGK(Ac)GLGKGGA) [Peptide 5]” was tested, and the “enzymatic biotinylation by biotinidase, peptide-bound biotin probed with streptavidin peroxidase” value was “barely detectable”.
“6: histone H4 positions 6-15, Ac-K in position 12 (Ac-GGKGLGK(Ac)GGA) [Peptide 6]” was tested, and the “enzymatic biotinylation by biotinidase, peptide-bound biotin probed with streptavidin peroxidase” value was “decreased biotinylation of the peptide”.
For “7: histone H4 positions 6-15, Dme-K in position 8 (Ac-GGK(Me2)GLGKGGA) [Peptide 7]”, the “enzymatic biotinylation by biotinidase, peptide-bound biotin probed with streptavidin peroxidase” value was “decreased substantially”.
In the case of “8: histone H4 positions 6-15, Dme-K in position 12 (Ac-GGKGLGK(Me2)GGA) [Peptide 8]”, the “enzymatic biotinylation by biotinidase, peptide-bound biotin probed with streptavidin peroxidase” value is reported as “decreased substantially”.
In the case of “9: histone H4 positions 6-15, For-K in position 12 (Ac-GGKGLGK(For)GGA) [Peptide 9]”, the “enzymatic biotinylation by biotinidase, peptide-bound biotin probed with streptavidin peroxidase” value is reported as “decreased compared to the native peptide”.
With “12: histone H4 positions 6-15, arginine in position 8 (Ac-GGRGLGKGGA) [Peptide 12]” the “enzymatic biotinylation by biotinidase, peptide-bound biotin probed with streptavidin peroxidase” value was “decreased substantially”.
“13: histone H4 positions 6-15, arginine in position 12 (Ac-GGKGLGRGGA) [Peptide 13]” was tested, and the “enzymatic biotinylation by biotinidase, peptide-bound biotin probed with streptavidin peroxidase” value was “decreased moderately”.
In the case of “14: histone H4 positions 6-15, arginine in positions 8 and 12 (Ac-GGRGLGRGGA) [Peptide 14]”, the “enzymatic biotinylation by biotinidase, peptide-bound biotin probed with streptavidin peroxidase” value is reported as “not detected”.
For “15: histone H4 positions 6-15, glutamate in position 8 [Peptide 15]”, the “enzymatic biotinylation by biotinidase, peptide-bound biotin probed with streptavidin peroxidase” value was “not detectable”.
With “16: histone H4 positions 6-15, glutamate in position 12 [Peptide 16]” the “enzymatic biotinylation by biotinidase, peptide-bound biotin probed with streptavidin peroxidase” value was “not detectable”.
For “17: histone H4 positions 6-15, glutamine in position 8 (Ac-GGQGLGKGGA) [Peptide 17]”, the “enzymatic biotinylation by biotinidase, peptide-bound biotin probed with streptavidin peroxidase” value was “decreased compared to the native peptide”.
For “18: histone H4 positions 6-15, glutamine in position 12 (Ac-GGKGLGQGGA) [Peptide 18]”, the “enzymatic biotinylation by biotinidase, peptide-bound biotin probed with streptavidin peroxidase” value was “decreased compared to the native peptide”.
With “19: histone H4 positions 6-15, glutamine in positions 8 and 12 (Ac-GGQGLGQGGA) [Peptide 19]” the “enzymatic biotinylation by biotinidase, peptide-bound biotin probed with streptavidin peroxidase” value was “no enzymatic biotinylation was detectable”.
“20: histone H4 positions 6-15, D-lysine in position 12 (Ac-GGKGLG[dK]GGA) [Peptide 20]” was tested, and the “enzymatic biotinylation by biotinidase, peptide-bound biotin probed with streptavidin peroxidase” value was “decreased only moderately”.
With “GGKGLGKGGA (Ac-GGKGLGKGGA) [Peptide 1, amino acids 6 through 15 in histone H4, native control]” the “enzymatic biotinylation by biotinidase, peptide-bound biotin probed with streptavidin peroxidase” value was “efficiently biotinylated”.

Same assay, conditions: incubated with plasma and biocytin for 0 to 60 min
For “SGRGKGGKGLGKGGAKRHR [SEQ ID NO:7, N-terminal 19 amino acids of histone H4]”, the “time at which abundance of biotinylated peptide reached a plateau” value was 20 to 60 min.
